We go through 4 molecules from publication PMC7156367, “Cell surface processing of the P1 adhesin of Mycoplasma pneumoniae identifies novel domains that bind host molecules” (Scientific Reports, 2020).

Entries after “also recorded” stand apart in the source; their conditions may differ. Where no end group is shown, it is not given here. The star is where a group is joined. Biotin = O=C1N[C@H]2[C@H](CS[C@H]2CCCCC(=O)*)N1

Assay [1] deals with T1, Human vitronectin (human, UniProt P04004 20-478).
T1 construct: vitronectin, human, Sigma SRP3186; source: bought: Sigma (Code SRP3186)
Briefly: ELISA; 15 µg/ml of C-terminal P1 fragment bound to wells, incubated with host protein at several concentrations; detected with antiserum against the host protein, absorbance at 450 nm. The following applies: both partners purified. For orientation: ELISA stands for enzyme-linked immunosorbent assay.

For assay [2], the system named is A549 human lung cells. The experiment in a line: Binding to immobilised A549 human lung cells (microtitre plate). The format is cell-based. The note with it: 10 µg/ml; detection with antiserum against RP15 (1:100), absorbance 450 nm; eight replicates. The method, then: Freshly grown A549 cells were immobilised in 96-well microtitre plates as described in[17]. Immobilised A549 cells were incubated with 10 µg/ml of either RP15, P1-30, or P1-15 and binding affinity was measured with antiserum raised against RP15 (1:100) as described above. Absorbance detection at 450 nm is the same as described above.

Assay [3] concerns the target T2, Fetuin, fluorescent labelled (microscale thermophoresis) (bovine, UniProt P12763 19-359, fluorescent label).
T2 construct: fetuin
T2 sequence (looked up): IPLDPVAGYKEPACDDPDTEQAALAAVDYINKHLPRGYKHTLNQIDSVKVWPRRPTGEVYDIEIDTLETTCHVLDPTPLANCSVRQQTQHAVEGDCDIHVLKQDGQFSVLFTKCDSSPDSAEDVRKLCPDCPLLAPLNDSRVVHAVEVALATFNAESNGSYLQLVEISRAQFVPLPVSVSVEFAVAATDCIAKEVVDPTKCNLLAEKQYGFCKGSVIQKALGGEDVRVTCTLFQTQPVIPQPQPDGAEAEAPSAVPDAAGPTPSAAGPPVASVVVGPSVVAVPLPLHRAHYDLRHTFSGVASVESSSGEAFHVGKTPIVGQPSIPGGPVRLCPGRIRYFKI
The experiment in a line: MST; fluorescent labelled host protein, peptide titrated; thermophoresis 30 s, 40%, 60% and 80% MST power. The following applies: both partners purified.

Assay [4] addresses T3, Human lactoferrin (human, UniProt P02788 20-710).
T3 construct: lactoferrin, human, Sigma L1294; source: bought: Sigma (Code L1294)
The experiment in a line: ELISA; 15 µg/ml of C-terminal P1 fragment bound to wells, incubated with host protein at several concentrations; detected with antiserum against the host protein, absorbance at 450 nm. The following applies: both partners purified.

For assay [5], the system named is panel of host proteins. Briefly: Microtitre binding assays, panel of host proteins. Also on record: species or system human. The following applies: 15 µg/ml of C-terminal P1 fragments bound to wells. On the procedure: (§1) Human proteins used for ELISA include: plasma fibrinogen (Code: F3879), plasma fibronectin (Code: 11051407001), Glu-plasminogen (Code: P7999), vitronectin (Code: SRP3186), laminin (Code: L6274), and lactoferrin (Code: L1294) which were all supplied by Sigma.
(§2) Binding affinity measured by ELISA was performed as described previously. Recombinant protein RP15 was produced as described[55] and both C-terminal peptides were synthesised by Chempeptide Limited (China). P1-30 (^1597[…]^1627) without any tags, but P1-15 (^1613PGAPKPPVQPPKKPA^1627) was sequenced with an N-terminal biotin tag.
(§3) 15 µg/ml of C-terminal P1 fragments were bound to wells and incubated with different host proteins. Wells were then incubated with different antiserum raised against the different host proteins at the following dilutions (all from Sigma): anti-fibrinogen 1:3000, anti-fibronectin 1:1000, anti-plasminogen: 1:2500, anti-vitronectin 1:5000, anti-laminin 1:750, and anti-lactoferrin 1:5,000. These incubations were followed by incubations with anti-rabbit IgG (Dako) or anti-goat IgG (both 1:2,000). Detection was measured by adding Tetramethylbenzidine (Sigma) followed by 1 M HCl, and absorbance was measured at 450 nm (620 nm as reference).

In assay [6] the test system is vitronectin. The experiment in a line: Microtitre plate binding assay (ELISA), vitronectin. Further details: species or system human. The note with it: 15 µg/ml of C-terminal P1 fragments bound to wells, absorbance 450 nm (620 nm reference), eight replicates, P1-15 with N-terminal biotin tag. The method, then: as §1, §2, §3
The test system of assay [7] is laminin. The experiment in a line: Microtitre plate binding assay (ELISA), laminin. Further details: species or system human. The following applies: 15 µg/ml of C-terminal P1 fragments bound to wells, absorbance 450 nm (620 nm reference), eight replicates, P1-15 with N-terminal biotin tag. The method, then: as §1, §2, §3
For assay [8], the system named is lactoferrin. Briefly: Microtitre plate binding assay (ELISA), lactoferrin. Also on record: species or system human. The note with it: 15 µg/ml of C-terminal P1 fragments bound to wells, absorbance 450 nm (620 nm reference), eight replicates, P1-15 with N-terminal biotin tag. The method, then: as §1, §2, §3
For assay [9], the system named is Glu-plasminogen. Briefly: Microtitre plate binding assay (ELISA), plasminogen. Also on record: species or system human. The following applies: 15 µg/ml of C-terminal P1 fragments bound to wells, absorbance 450 nm (620 nm reference), eight replicates, P1-15 with N-terminal biotin tag. The method, then: as §1, §2, §3
Assay [10] has as its system plasma fibrinogen. The experiment in a line: Microtitre plate binding assay (ELISA), fibrinogen. Further details: species or system human. The following applies: 15 µg/ml of C-terminal P1 fragments bound to wells, absorbance 450 nm (620 nm reference), eight replicates, P1-15 with N-terminal biotin tag. The method, then:
as §1, §2, §3

Assay [11] deals with plasma fibronectin. The experiment in a line: Microtitre plate binding assay (ELISA), fibronectin. The following applies: 15 µg/ml of C-terminal P1 fragments bound to wells, absorbance 450 nm (620 nm reference), eight replicates, P1-15 with N-terminal biotin tag. Further details: species or system human. On the procedure: as §1, §2, §3

T1 sequence (P04004 20-478): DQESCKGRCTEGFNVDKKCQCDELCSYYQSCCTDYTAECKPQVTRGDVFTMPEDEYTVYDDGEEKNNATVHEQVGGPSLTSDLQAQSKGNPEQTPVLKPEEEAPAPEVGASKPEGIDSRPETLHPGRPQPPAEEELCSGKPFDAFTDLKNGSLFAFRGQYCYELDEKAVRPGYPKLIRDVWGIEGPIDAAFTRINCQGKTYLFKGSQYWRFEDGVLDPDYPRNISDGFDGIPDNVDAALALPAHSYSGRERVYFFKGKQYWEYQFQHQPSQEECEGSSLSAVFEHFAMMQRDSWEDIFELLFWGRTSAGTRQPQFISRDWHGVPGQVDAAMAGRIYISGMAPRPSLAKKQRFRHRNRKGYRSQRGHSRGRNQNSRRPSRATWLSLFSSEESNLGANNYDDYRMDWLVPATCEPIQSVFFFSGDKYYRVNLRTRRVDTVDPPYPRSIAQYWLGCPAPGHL
T3 sequence (P02788 20-710): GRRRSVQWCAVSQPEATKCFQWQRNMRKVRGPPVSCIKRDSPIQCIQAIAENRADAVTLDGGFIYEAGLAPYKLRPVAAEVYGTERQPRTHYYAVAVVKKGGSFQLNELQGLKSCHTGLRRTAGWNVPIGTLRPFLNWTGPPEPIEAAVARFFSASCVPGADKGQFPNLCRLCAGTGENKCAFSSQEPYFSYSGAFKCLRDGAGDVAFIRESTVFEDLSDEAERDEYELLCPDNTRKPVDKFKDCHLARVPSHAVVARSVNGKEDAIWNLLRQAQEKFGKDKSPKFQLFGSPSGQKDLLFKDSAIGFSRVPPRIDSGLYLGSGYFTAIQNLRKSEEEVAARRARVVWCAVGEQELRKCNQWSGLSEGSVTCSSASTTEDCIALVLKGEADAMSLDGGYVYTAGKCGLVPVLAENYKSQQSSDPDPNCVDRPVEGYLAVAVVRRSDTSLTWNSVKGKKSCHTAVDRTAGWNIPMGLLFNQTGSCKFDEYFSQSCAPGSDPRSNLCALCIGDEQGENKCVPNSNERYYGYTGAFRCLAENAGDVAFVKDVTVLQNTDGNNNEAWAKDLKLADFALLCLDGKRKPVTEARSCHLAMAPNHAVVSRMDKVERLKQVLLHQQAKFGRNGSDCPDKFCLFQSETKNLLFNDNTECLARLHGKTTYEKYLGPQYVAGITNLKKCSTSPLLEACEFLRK

B1: P1-15, synthetic C-terminal peptide of P1 adhesin with N-terminal biotin (peptide)
peptide: Biotin-PGAPKPPVQPPKKPA
notes: P1 adhesin (Mpn141) of M. pneumoniae, residues 1613-1627; also called C-terminal 15 amino acids; source: synthetic peptide (Chempeptide Limited, China)
Take B1: the binding result in [1] is on record as “binds”.

B2: rPdhB: Recombinant pyruvate dehydrogenase subunit B of M. pneumoniae (positive control) (protein, UniProt P75391 1-327, looked up)
Pyruvate dehydrogenase E1 …: MSKTIQANNIEALGNAMDLALERDPNVVLYGQDAGFEGGVFRATKGLQKKYGEERVWDCPIAEAAMAGIGVGAAIGGLKPIVEIQFSGFSFPAMFQIFTHAARIRNRSRGVYTCPIIVRMPMGGGIKALEHHSETLEAIYGQIAGLKTVMPSNPYDTKGLFLAAVESPDPVVFFEPKKLYRAFRQEIPADYYTVPIGQANLISQGNNLTIVSYGPTMFDLINMVYGGELKDKGIELIDLRTISPWDKETVFNSVKKTGRLLVVTEAAKTFTTSGEIIASVTEELFSYLKAAPQRVTGWDIVVPLARGEHYQFNLNARILEAVNQLLK
Take B2: in assay [2], the “binding to immobilised A549 cells” value is “bound immobilised A549 cells”.

B3: P1-30, synthetic C-terminal peptide of P1 adhesin (peptide)
peptide: TSAAKPGAPRPPVPPKPGAPKPPVQPPKKPA
notes: P1 adhesin (Mpn141) of M. pneumoniae, residues 1597-1627; without any tags; also called C-terminal 30 amino acids; P1 tail; source: synthetic peptide (Chempeptide Limited, China)
One may read the Kd as the free concentration of one partner at which half of the binding sites on the other are occupied at equilibrium, for simple one-to-one binding. A high value points to lower affinity. Take B3: in [3], the Kd worked out at 2400 ± 700 nM.

B4: Recombinant protein RP15 (C-terminal region of P1 adhesin) (domain or fragment)
chain: DYVLPLAITVPIVVIVLSVTLGLAIGIPMHKNKQALKAGFALSNQKVDVLTKAVGSVFKEIINRTGISQAPKRLKQTSAAKPGAPRPPVPPKPGAPKPPVQPPKKPA
notes: P1 adhesin (Mpn141) of M. pneumoniae, residues 1521-1627
As to B4, the binding result in assay [1] and in [4] was “binds” in each case. Further, the “binding to panel of host molecules” value in [5] was “bind a range of host molecules in a dose dependent manner; also recorded: most consistent and most diverse binding capabilities”. Besides, the binding to vitronectin entry in assay [6] was “bound lactoferrin, vitronectin”. Also, in assay [7], the binding to laminin result was “Only M. pneumoniae cells bound laminin”. The “binding to immobilised A549 cells” value in assay [2] was “bound immobilised A549 cells; also recorded: observed to bind immobilised A549 cells”. Besides, the binding to lactoferrin entry in assay [8] is given as “bound lactoferrin”. The binding to plasminogen result in assay [9] was “bound lactoferrin, vitronectin, plasminogen”; in assay [9] (listed as RP-15) it was “bound it more strongly”. Moreover, the binding to fibrinogen result in assay [10] is “bound lactoferrin, vitronectin, plasminogen, fibronectin, and fibrinogen”; in [10] (listed as RP-15), “bound fibronectin and fibrinogen more strongly than P1-30”. Further, the binding to fibronectin result in [11] is “bound lactoferrin, vitronectin, plasminogen, fibronectin”; in assay [11] (listed as RP-15) it was “bound fibronectin and fibrinogen more strongly than P1-30”.
